The source of these data is paper PMC8774053, “Genome-wide association of the metabolic shifts underpinning dark-induced senescence in Arabidopsis” (The Plant Cell, 2021).

Substrate in the series: N[C@@H](Cc1ccc(O)cc1)C(=O)O
Description: purified protein. To be noted: 0-8 mM tyrosine, 100 mM alpha-ketoglutarate, 0.2 mM PLP, 100 mM Tris-HCl pH 8.5, 30 C, 5 min, constant not given in text, figure only. In kind it is biochemical, Arabidopsis thaliana.

B1: TAT1^A (accession CAM-61) (Arabidopsis thaliana) (protein)
chain: MENGATTTSTITIKGILSLLMESITTEEDEGGKRVISLGMGDPTLYSCFRTTQVSLQAVSDSLLSNKFHGYSPTVGLPQARRAIAEYLSRDLPYKLSQDDVFITSGCTQAIDVALSMLARPRANILLPRPGFPIYELCAKFRHLEVRYVDLLPENGWEIDLDAVEALADENTVALVVINPGNPCGNVYSYQHLMKIAESAKKLGFLVIADEVYGHLAFGSKPFVPMGVFGSIVPVLTLGSLSKRWIVPGWRLGWFVTTDPSGSFKDPKIIERFKKYFDILGGPATFIQAAVPTILEQTDESFFKKTLNSLKNSSDICCDWIKEIPCIDSSHRPEGSMAMMVKLNLSLLEDVSDDIDFCFKLAREESVILLPGTAVGLKNWLRITFAADATSIEEAFKRIKCFYLRHAKTQYPTI
For the protein B1, the Km (in general, the substrate concentration at which the rate is half of its maximum) is 410 ± 30 µM and the kcat (in general, the maximal rate divided by the concentration of active sites) is 45.85 ± 0.88 s⁻¹.

B2: TAT1 (Col-0, At5g53970.1; positive control) (Arabidopsis thaliana) (protein)
chain: B1 chain
Take B2: the Km stood at 390 ± 60 µM and the kcat was 47.84 ± 1.72 s⁻¹.
